# Experimental data reported in PMC6652007, “Metabolic engineering of Clostridium thermocellum for n-butanol production from cellulose” (Biotechnology for Biofuels, 2019).
# How the values were obtained:
# NAD(P)H oxidation, A340 [1] = substrate: NC(=O)C1=CN([C@@H]2O[C@H](COP(=O)(O)OP(=O)(O)OC[C@H]3O[C@@H](n4cnc5c(N)ncnc54)[C@H](O)[C@@H]3O)[C@@H](O)[C@H]2O)C=CC1; assay: NAD(P)H oxidation, A340; format: biochemical, Winmispira thermophila; settings: crotonyl-CoA as substrate, 100 mM MOPS-KOH pH 7.5, 55 °C, varied: cofactor
# Description: (§1) NAD(P)H oxidation, A340 on St_Ter
# NAD(P)H oxidation, A340 [2] = substrate: NC(=O)C1=CN([C@@H]2O[C@H](COP(=O)(O)OP(=O)(O)OC[C@H]3O[C@@H](n4cnc5c(N)ncnc54)[C@H](OP(=O)(O)O)[C@@H]3O)[C@@H](O)[C@H]2O)C=CC1; assay: NAD(P)H oxidation, A340; format: biochemical, Winmispira thermophila; settings: crotonyl-CoA as substrate, 100 mM MOPS-KOH pH 7.5, 55 °C, varied: cofactor
# Description: as §1
# NADH oxidation, A340 = substrate: C/C=C/C(=O)SCCNC(=O)CCNC(=O)[C@H](O)C(C)(C)COP(=O)(O)OP(=O)(O)OC[C@H]1O[C@@H](n2cnc3c(N)ncnc32)[C@H](O)[C@@H]1OP(=O)(O)O; assay: NADH oxidation, A340; format: biochemical, Winmispira thermophila; settings: 0.3 mM NADH, 100 mM MOPS-KOH pH 7.5, 55 °C
# Description: NADH oxidation, A340 on St_Ter
# coupled Hbd assay, A340 = substrate: CC(=O)SCCNC(=O)CCNC(=O)[C@H](O)C(C)(C)COP(=O)(O)OP(=O)(O)OC[C@H]1O[C@@H](n2cnc3c(N)ncnc32)[C@H](O)[C@@H]1OP(=O)(O)O; assay: coupled Hbd assay, A340; format: biochemical, Thermoanaerobacterium thermosaccharolyticum; settings: coupled with Hbd, 100 mM MOPS-KOH pH 7.5, 55 °C
# Description: coupled Hbd assay, A340 on Tt_Thl
Protein,"Km (NAD(P)H oxidation, A340 [1]) [mM]","Vmax (NAD(P)H oxidation, A340 [1]) [µmol/min/mg]","Km (NAD(P)H oxidation, A340 [2]) [mM]","Vmax (NAD(P)H oxidation, A340 [2]) [µmol/min/mg]",further results
"St_Ter (Winmispira thermophila DSM 6578) (protein, His-tagged (vector pD861-CH), codon-optimised, expressed in E. coli BL21(DE3)) MVIKPMIRNNICMNAHPEGCRLFVDRQIDYVRQRGPLSSGPKNVLVVGSSGGYGLATRIAAGFGAGAATIGVYFEKEPSEKRTGTPGWYAARHFLKRAEAAGLKVHDINGDAFSFEVKAQVVDLIKKEYGTIDLFVYSLASGVRTDPVSGVTYRSALKPIGRTYTSKALDPLKREVVQAAIEPASEEEIEATVKVMGGEDWQLWVEALKEGGVLAEGAVTVAYSYIGPELTRPIYREGTIGKAKEHLEATAKTLDEALASVGGKAYVSVNKAVVTRASAVIPAVPLYLSILFTVMKAKGIHEGCIEQMYRMLAERLYAGGPVPVDDEGRIRMDDWEMREDVQREVAEVWERITTETLDTEADVDGYLTDFLNLHGFGFKEIDYEKEVDPREG",0.03 ± 0.01,18.2,0.4 ± 0.1,12.2,"Km (NADH oxidation, A340): 0.03 ± 0.01 mM"
"St_Ter (Winmispira thermophila DSM 6578; E75A) (protein, His-tagged (vector pD861-CH), codon-optimised, expressed in E. coli BL21(DE3)) MVIKPMIRNNICMNAHPEGCRLFVDRQIDYVRQRGPLSSGPKNVLVVGSSGGYGLATRIAAGFGAGAATIGVYFAKEPSEKRTGTPGWYAARHFLKRAEAAGLKVHDINGDAFSFEVKAQVVDLIKKEYGTIDLFVYSLASGVRTDPVSGVTYRSALKPIGRTYTSKALDPLKREVVQAAIEPASEEEIEATVKVMGGEDWQLWVEALKEGGVLAEGAVTVAYSYIGPELTRPIYREGTIGKAKEHLEATAKTLDEALASVGGKAYVSVNKAVVTRASAVIPAVPLYLSILFTVMKAKGIHEGCIEQMYRMLAERLYAGGPVPVDDEGRIRMDDWEMREDVQREVAEVWERITTETLDTEADVDGYLTDFLNLHGFGFKEIDYEKEVDPREG",0.6 ± 0.1,10.3,0.02 ± 0.01,68.1,–
"Tt_Thl (Thermoanaerobacterium thermosaccharolyticum DSM 571) (protein, His-tagged (vector pD861-CH), codon-optimised, expressed in E. coli BL21(DE3)) MKEVVIASGVRTAVGKFGGTLLNVPAVDLGAVVIKEALKRANVKPEDVSEVIMGNVLQAGLGQNPARQAEIKAGIPVEVPAMTVNMVCGSGLRAVTLAAQAVMLGDADIVVAGGMENMSRAPYILNDARFGYRMNNGQLVDEMVYDGLTDVFNQYHMGITAENLAEKYGISREEQDEFAYRSQKLASEAISSGRFEDEIVPVIVPQKKGEPIEFKVDEHVRPNTTIEALAKLKPAFKKDGTVTAGNASGINDAAAAVVVMSKEKADELGIKPLATIKSFGYAGVDPSIMGIGPVYATRKALEKANLTVDDLDLIEANEAFAAQSLAVAKELKFNMDRVNVNGGAIAIGHPIGASGCRILVTLLYEMQKRNSHTGLATLCIGGGMGIAMVVER",–,–,–,–,"Km (coupled Hbd assay, A340; 0.3 mM NADH): 2.4 ± 0.58 mM"
"Tt_Thl (Thermoanaerobacterium thermosaccharolyticum DSM 571; N153Y/S287K/V77Q) (protein, His-tagged (vector pD861-CH), codon-optimised, expressed in E. coli BL21(DE3)) MKEVVIASGVRTAVGKFGGTLLNVPAVDLGAVVIKEALKRANVKPEDVSEVIMGNVLQAGLGQNPARQAEIKAGIPQEVPAMTVNMVCGSGLRAVTLAAQAVMLGDADIVVAGGMENMSRAPYILNDARFGYRMNNGQLVDEMVYDGLTDVFYQYHMGITAENLAEKYGISREEQDEFAYRSQKLASEAISSGRFEDEIVPVIVPQKKGEPIEFKVDEHVRPNTTIEALAKLKPAFKKDGTVTAGNASGINDAAAAVVVMSKEKADELGIKPLATIKSFGYAGVDPKIMGIGPVYATRKALEKANLTVDDLDLIEANEAFAAQSLAVAKELKFNMDRVNVNGGAIAIGHPIGASGCRILVTLLYEMQKRNSHTGLATLCIGGGMGIAMVVER",–,–,–,–,"Km (coupled Hbd assay, A340; variant M1, NADH): 3.3 ± 0.7 mM; Vmax (coupled Hbd assay, A340; variant M1, NADH): 15.3 µmol/min/mg"
"Tt_Thl (Thermoanaerobacterium thermosaccharolyticum DSM 571; H156N/N223V/P222F/R133G) (protein, His-tagged (vector pD861-CH), codon-optimised, expressed in E. coli BL21(DE3)) MKEVVIASGVRTAVGKFGGTLLNVPAVDLGAVVIKEALKRANVKPEDVSEVIMGNVLQAGLGQNPARQAEIKAGIPVEVPAMTVNMVCGSGLRAVTLAAQAVMLGDADIVVAGGMENMSRAPYILNDARFGYGMNNGQLVDEMVYDGLTDVFNQYNMGITAENLAEKYGISREEQDEFAYRSQKLASEAISSGRFEDEIVPVIVPQKKGEPIEFKVDEHVRFVTTIEALAKLKPAFKKDGTVTAGNASGINDAAAAVVVMSKEKADELGIKPLATIKSFGYAGVDPSIMGIGPVYATRKALEKANLTVDDLDLIEANEAFAAQSLAVAKELKFNMDRVNVNGGAIAIGHPIGASGCRILVTLLYEMQKRNSHTGLATLCIGGGMGIAMVVER",–,–,–,–,"Km (coupled Hbd assay, A340; variant M2, NADH): 2.6 ± 0.5 mM; Vmax (coupled Hbd assay, A340; variant M2, NADH): 45.2 µmol/min/mg"
